Data: the DeepSol protein solubility set

Assay: soluble on expression in E. coli; label from the status in PepcDB or PDB records
With “MAHHHHHHMTMFGKIHVYKRTYEICSIILKNYFVYYHPLYLDFYLSFAWYNKGSNNEKAFLHFLREFILLQINVCSKRCREKKMEILKMNENFEHLVFSIIFKNNKEEEDNKNKYDINENVNIRRLDNYVSSSFLNDICYPHCNIYNENKNFDILKNFDFLKSNILLASSLHYFINSLFCYYNNDDFINKYKSTDFIFDSILLCIKSLESVKRTYRLSTYTEKGFGNVCLDISLMIIKLKLKHPKFLEKKDNWMLYALRNAMEAEEVTEKK” the “soluble on expression in E. coli” value was “not soluble”. In the case of “MGSDKIHHHHHHMIDFLLLKSLHSLLGLTITVCDQNFSVIREYKSEKTISLFYNHYLILSNFSKTQHDFLFHYGSLGELFLVHHIQQYYIIIGPWRSNVIDPLLLKKKLTETQINASEQDYFIDRLSQLPFFSLSQIRELLIVTNYCLTGVVKDKLSEPLHYYTKGWSNSFDLDKIKQFSKQNMSSYKYQYHFENNILKAVKSGSEFLLKETVEQFSNSIVPIISGDELRSEKNYSIMIYDRLSQATIQAGLDIETAYRARDRFIKENESTISLNEVLKLRDTAILFYTQQVHSLKKHLETPHSQTIVAVIRYLENNLNRFIKTEEIAKECHMSESKLRKLFKQEKHITIQQYFLNLKIEAAKQLLDENKKVEEVSNLLGFSTSSNFSRTFKKIVGISPLEYKQKPKTI”, the “soluble on expression in E. coli” value is reported as “not soluble”. In the case of “MDDRGGSFVAVRRISQGLERGSVYHSSSAEVVAGSAAWLGRGLSCVCVQGRDGDPRPSFDLTPAQEECLQRLQSRIDVAYDSSIPQHQEALKDLWKLAFPEEELHGIVSDQWKEMGWQGKDPSTDFRGGGFISLENLLYFARKFPKSFHGLLRKQVGDRSVWEYPFAVAGINITFMLIQMLDLEAVNESAFDLLYCIAFKLMDQQWLSMRASYMEFNTVMKSTRRQLEREIMIEDITSLEDLPSYSLLSQ”, the “soluble on expression in E. coli” value is reported as “soluble”. In the case of “MDKVLNREESLQLMDLLGLERSAWGNIPLMRKAYLKKCKEFHPDKGGDEEKMKKMNTLYKKMEDGVKYAHQPDFGGFWDATEVFASSLNPGVDAIYCKQWPECVKKMSTNCICLLCLLRMKHENRKLYRKDPLVWVDCYCFDCFRMWFGLDLCEGTLLLWCDIIGQTTYRDLKL”, the “soluble on expression in E. coli” value is reported as “soluble”. With “MLEQVCQLARNAGDAIMQVYDGAKPMEYARKQDDSPVTAADIAAHTVILEGLRTLTPDIPVLSEEDPPAWEVRQHWQRYWLVDPLDGTKEFIKRNGEFTVNIALIEQGKPVLGVVYAPVLKVMYYAAEGKAWKEECGVRKQIQVRDARPPLVVISRSHTDDELTEYLQQLGEHQTTSIGSSLKFCLVAEGQAQLYPRFGPTSVWDTAAGHAIAVAAGAHVHDWQGKTLDYTPRESFLNPGFRVTIY” the “soluble on expression in E. coli” value was “not soluble”. In the case of “MQMLIPQRLLLILNPILMMKRKKRKKRKKRRERETMMKIPRILKKLRRKRRTRRKRRKRRKRRRRKRRKRRRKRSPRKRRKRRNKDAFYILIISDPSRSLLFGFRKFSIIIQCLTYFSFHILFHNL”, the “soluble on expression in E. coli” value is reported as “soluble”. For “MGSDKIHHHHHHIEAQIKEDLDLIRNGTSLLSLIPNFGMEAVTPWLDEFERGLMYELDFKREIKNIAFFRDMYRDRDDVKIPRPYSRLSTEDVIVMDYTPSVPIVRPFKAERLINMFLEQLLYEGVIHGDLHTGNIGLDSKTGSLVLYDFGNIINITSQYKTAIRDFVYGVQTGNVDAVMDNMVKMGMNVRDREVTRIFVKQYFDYLQTLDLTSFTINSPEIREKASKVPVELDSTTLTILRTYSLLEGLAKELDPSFSYARIINKNVELLFLDLEYIMYRIQKDTSS”, the “soluble on expression in E. coli” value was “not soluble”. With “MPLRQDLTPVVITVTGADRHGVTAATFRVLSANNVQILDVEQSKFRGFLSIAVYAGIKASMIDSVEQGLRDTLSVHGQSVSLSVESRTEVSRPRSTHVVVILGNPVGAEDIWKIGQTMADFGANIDGIRGISDYPVTGLELRVTVADPAPGAAEPLRKALAALTTELGVDIVIERAGLQR” the “soluble on expression in E. coli” value was “not soluble”. In the case of “MGSDKIHHHHHHMKTNYRLHMQQGSDYLKKFLEKHIDLLKKIPLFEGIKSDELEEMLECLGVVDKTYPKDSIIFSVGSEVTSIGIMLKGSAHIIKEDIEGNRNIVAELLPGDLFGEVFACTRLHKSNVTVTTTSSCEVLFIKFKSVTGICSSTCVFHNRLVENMLQLIAEKNILLHNKIELLSRKTTREKLLMYFSKQIEQTGSHQFTIPFSRNEMADFLCVDRSSMSRELGKMRDEGLLSFNKNKFEIFYFKK”, the “soluble on expression in E. coli” value is reported as “not soluble”. In the case of “MTEEILKQGVGIVETSLTFEPPFCESFERISIDNFPIFALGKEISKEDGIEAMKKYVTSRFWFTYRRDFSPIGGTGPSTDQGWGCMLRCAQMLLGEVLLRRHIGRHFEWDIEKTSEIYEKILQMFFDEKDALYSIHQIAQMGVTEGKEVSKWFGPNTAAQVMKKLTIFDDWSNIAVHVALDNILVKEDAITMATSYPSEDAVKLIMGKKGLQTTKRKNRKNLDFTVKYLKQIKFFKFFNLFQIFYENGLVDKNRLSLSPGNIIPEWRPLLLMIPLRLGLTTINPCYLSAIQEFFKIPQCVGIIGGRPNHALYFVGMSGSKLFYLDPHYCRPKTESTAKMYAEKDSTATTDDVGFSHLEELVPLPSQTADVYTKMDDSTYHCQMMLWIEYENVDPSLALAMFCETRDEFENLCETLQKTTLPASQPPMFEFLQRRPKYLPKFEPYTGVSMKIEMKEFDDIGAANVKIDDDFEVLDVHTEEEDADEDNDDDVANA”, the “soluble on expression in E. coli” value is reported as “not soluble”. For “MNTVRSEKDSMGAIDVPADKLWGAQTQRSLEHFRISTEKMPTSLIHALALTKRAAAKVNEDLGLLSEEKASAIRQAADEVLAGQHDDEFPLAIWQTGSGTQSNMNMNEVLANRASELLGGVRGMERKVHPNDDVNKSQSSNDVFPTAMHVAALLALRKQLIPQLKTLTQTLNEKSRAFADIVKIGRTHLQDATPLTLGQEISGWVAMLEHNLKHIEYSLPHVAELALGGTAVGTGLNTHPEYARRVADELAVITCAPFVTAPNKFEALATCDALVQAHGALKGLAASLMKIANDVRWLASGPRCGIGEISIPENEPGSSIMPGKVNPTQCEALTMLCCQVMGNDVAINMGGASGNFELNVFRPMVIHNFLQSVRLLADGMESFNKHCAVGIEPNRERINQLLNESLMLVTALNTHIGYDKAAEIAKKAHKEGLTLKAAALALGYLSEAEFDSWVRPEQMVGSMKAGRHHHHH”, the “soluble on expression in E. coli” value was “soluble”. For “MGSDKIHHHHHHMNLYQTKLFTTLQKEYKNKYGVDISQFVKLTNSSINFDKFEEEQLTLKQKNVIKSIKKNNEKKIILSGGIASGKTYLACYLFLKSLIEIKKLYSSDTNNFIIGNSQRSVEVNVLGQFEKLCKLLKIPYIPRHTNNSYILIDSLRINLYGGDKASDFERFRGSNSALIFVNEATTLHKQTLEEVLKRLRCGQETIIFDTNPDHPEHYFKTDYIDNIATFKTYKFTTYDNVLLSKGFVETQEKLYKDIPSYKARVLLGEWIASTDSIFTQINITDDYVFTSPIAYLDPAFSVGGDNTALCVMERVDDKYYAFVFQDQRPANDPYIMNMVKTVIENFNVHTLYLEDRDNTKGAGGLTREYILLRSNISQYFRIVPVKPKSNKFSRITTLITPFTYKKLYITKYSSSSVFNDIYSYKGDNKTHDDALDAISAAYLMLSLGYRERSVHFGNQRFL”, the “soluble on expression in E. coli” value was “not soluble”. For “MAASGEEDMSELSPAAAPNLDWYEKPEETHAPEVDLETVIPPAQEPSNPAEPFCPRDLVPVVFPGPVSQEDCCQFTCELLKHILYQRHQLPLPYEQLKHFYRKAPQAEDTARKKAWLATEARNRKCQQALAELESVLSHLRDFFARTLVPQVLILLGGNALSPKEFYELDLSRLAPFGVDQGLNTAACLRRLFRAIFLADPFSELQTPPLMGTIVMVQGHRDCGEDWFQPKLNYRVPSRGHKLTVTLSCGRPSVPAMASEDYIWFQAPVTLKGFHE”, the “soluble on expression in E. coli” value was “not soluble”. With “MMKEQNIPQDSLIAGYLPADYCDSFSRNVVSEKAITSDEFFDMAFNHSPGWVNGLMKLRNAIVKPLGLEVGMRFADTICEQNAQEVVFGMPDKHLTFHASLWCGEKEPGGQTFTITTVVKFNNRLGRLYFFFIRPFHKVIIRSMLKRVAKRLK” the “soluble on expression in E. coli” value was “not soluble”. For “MMRCPECSTEGWRVLPLTVGAHVKEGLWSKIKGDFYFCSLESCEVVYFNEQTVFRKGELKTRVGVKEREEPKPVCYCNRVTEKMLLEAAEKFGKEKAVEITGAGKGKWCVVTNPSGRCCHWHLERLGFPV”, the “soluble on expression in E. coli” value was “soluble”. In the case of “MKETEQVSEAPHGLEGAWLDLTNRVRVSGDTVEACSAFSIGPPRCRWLLQATDRGVNCAALDHYVPHICGTHTETVYHIAHHRYIKRAVCEIPFFRFHKARIQVCTAKIACTEQVLPSADTDYPCLEPNDLIVGPSALNRAPRYTRAQDSTIEALILIVVGPDGTSDWRDGKLDDRPPYLTPAAIESLATRYPNMRHLLTNLPSVDRRRDGGLVRSHRAFFATDFAGDGTPSESPQKTITELLRVPPDWQLYDDAEGVVCISLAPIEGLDAIPSSVYFKSH”, the “soluble on expression in E. coli” value is reported as “not soluble”. For “MTSITPSIQFFAGIFEELSNVSLRREVRTGKRIVMMKFNQLQAIEGFNSFTKQSLNSLLLTDEEGEISVTPSATRFIFGGDEGDELQGVECKFEVERDDHWERFMRFMNRYAEANDMEYGERLEHHHHHH”, the “soluble on expression in E. coli” value was “soluble”. For “MAHHHHHHMNRLTNTNKGYTTNKEYISNNAQKNICTINYGQTYSNILNDEEKEKILQQYIYTLSHLSIIDIDREKDISLNISLLLKACLASHNYIKNVEIYTSQIKNQDICSFIYENRTDFEDFVNTHILKYIEFFNKDKIEDTLQSYIKDKILYDNELNIFNIIKNNNIELRKDILQDISFECIRLNKIIQYSLAVNKLDLFSYHIIFKIFMYFKTDQFYYHLFLNNIQKIKYYYSIKNITDQHKEIIYKIVDKYLYIIHYMNNMYQNRDIKNV”, the “soluble on expression in E. coli” value was “not soluble”. With “MGSDKIHHHHHHPEIIVPKPHQLKWHEAEMGAVFHYDLHVFDGIRYGQGNNRISPIEDYNIFNPTQLDTDQWIQAAKAAGCKFAVLTATHETGFGLWQSDVNPYCLKAVKWRDGKGDIVRDFVNSCRKYGIQPGIYVGIRWNSLLGIHNFKVAGDGEFAANRQAWYKRFCEKMVEELCTRYGDLYMIWFDGGADDPRGDGPDVEPIVNKYQPDCLFYHNIDRADFRWGGSETGTVGYPCWSTFPAPCSHHKRIESQKDQIALLKQGDPEGKYWVPAMADSPLRGANGRHEWFWEPDDENNIYPLTTLMDMYEKSVGRNATLIIGLTPDPDGLLPAGDEQRLKEWGEEINRRFGTPLAETQGRKQRLTLNLNEKQPVNYCIIQEDIAKGERIRQYKIEAKVNGKWQTVCSGESVGHKRIAHFEPVETTALRLTVTQSVAVPEIRHFSAYNVTLK” the “soluble on expression in E. coli” value was “not soluble”. In the case of “MFEEKASSPSGKMGGEEKPIGAGEEKQKEGGKKKNKEGSGDGGRAELNPWPEYIYTRLEMYNILKAEHDSILAEKAEKDSKPIKVTLPDGKQVDAESWKTTPYQIACGISQGLADNTVIAKVNNVVWDLDRPLEEDCTLELLKFEDEEAQAVYWHSSAHIMGEAMERVYGGCLCYGPPIENGFYYDMYLEEGGVSSNDFSSLEALCKKIIKEKQAFERLEVKKETLLAMFKYNKFKCRILNEKVNTPTTTVYRCGPLIDLCRGPHVRHTGKIKALKIHKNSSTYWEGKADMETLQRIYGISFPDPKMLKEWEKFQEEAKNRDHRKIGRDQELYFFHELSPGSCFFLPKGAYIYNALIEFIRSEYRKRGFQEVVTPNIFNSRLWMTSGHWQHYSENMFSFEVEKELFALKPMNCPGHCLMFDHRPRSWRELPLRLADFGVLHRNELSGALTGLTRVRRFQQDDAHIFCAMEQIEDEIKGCLDFLRTVYSVFGFSFKLNLSTRPEKFLGDIEVWDQAEKQLENSLNEFGEKWELNSGDGAFYGPKIDIQIKDAIGRYHQCATIQLDFQLPIRFNLTYVSHDGDDKKRPVIVHRAILGSVERMIAILTENYGGKWPFWLSPRQVMVVPVGPTCDEYAQKVRQQFHDAKFMADIDLDPGCTLNKKIRNAQLAQYNFILVVGEKEKISGTVNIRTRDNKVHGERTISETIERLQQLKEFRSKQAEEEF”, the “soluble on expression in E. coli” value is reported as “soluble”. In the case of “MDIKELHVKTVKRGENVTMECSMSKVTNKNNLAWYRQSFGKVPQYFVRYYSSNSGYKFAEGFKDSRFSMTVNDQKFDLNIIGAREDDGGEYFCGEVEGIIIKFTSGTRLQFEGSNEGSKSSDGEGSSCPDQMHVLVW”, the “soluble on expression in E. coli” value is reported as “soluble”.
